# Test: soluble on expression in E. coli; label from the status in PepcDB or PDB records
row,Sequence,soluble on expression in E. coli
1,MNDHSQLFRLLALLLDYPRAELREESLGLHALIRTCELPEALRDGLAALLNELCQGDLLDVQARYDGLFERGRSVSLLLFEHVHGESRDRGQAMVDLLDRYTGAGLQIDVPELPDYLPLYLEYLSLLPFAAASEGLAEVAHILGLLALRLEERGSAYAAIFEALLELGGERPDLGALRRDQAQEQRDDSLEAIDRAWEETPVSFTDPAGGCPSSSGRRPTASTEQPLQWVAQPVPQM,not soluble
2,RTCRIHEISCGAHSTQCIPVSWRCDGENDCDSGEDEENCGN,soluble
3,MLITSYNPSELGDTLITILRPDTATQTIETHANVTRISDADSGETLGYNFFDVSKTLGDLDANGQVHLTAEQVEQLNNLLKTNDFEPELVLDTDPKFVVGYVESAEAHPKSDHLQITKTNVGLEQPLQIVSGSPNMQANILVVVAKVGAMMPSGLIIWPGELRGVESDGMIVSGRELRLPNAPQRPGALILPADYQPVGAAFDFKRAQTLFTALEHHHHHH,not soluble
4,MGLMHPRQLLTLPNGDVLVVEANSPGTVPITSPKQMIASIVKDRSGKGGKGGNRITLLRKAAGQSGKWEKYVFIENLHSPFGVQLIGDTLYVANTGNIMKYRYTPGETRMSDPGVEFTDLPSTVNHHWTKALLASPDGKKLYVGVGSNSNVAENGLDIEYRRATVLEVDVQSAASRIYASGIRNPTGLGWEPTTGKLWAIVNERDEIGADLVPDYLTSVQEGGFYGWPYSYYGQYVDQRVQPQRPDLVARAIRPDYALGSHVAPLGLWFYQGRNLPEKYHGGAFIGQHGSWNRIPLSGYDVVFVRFKDGKPEGVPEPVVTGFTSADQKTLKGAPVGLAEDAEGALLIADDVGNTIWRVTARGLEHHHHHH,not soluble
5,MKINSPLEAYKYLPQTNCGECGQPTCMAFASTLIDRSGKTTDCPPLIKEKKFAKKLAELDRLLAPEIRQVTIGVGERAANIGGDDVLYRHKLTFFNKTKMFFDVADNMDEAAIVERVKKISDYKKFYVGRNLLLDGVAIRAASNDPAKFATAVKKVIENTELPVILCSFNPAVLKAGLEVAKGKNPLLYAANKDNWKEVGELALEYNVPVVVSAFNDLDGLKTLAKTFAEAGIKDIVLDPGTYPTGKGLKDTFTNFLKIRRAGIMGDTEIAYPIMAMPLTAWMAGIADPVSASYWETVLASIFTIRYGDIMLLHSMEPYATMPEVHLAETIYTDPRSPVAVDSKMYKVGNPTADSPVLFTTNFALTYYTVESDLASNGIDCWLLAVNTDGIGVEAAAAGGQLTADKVKDAFEKSGFDLKSDVTHNSVVIPGLAARLQGDIEDKLNVKVMVGPMDSGRLPGWMEKNWPPKK,not soluble
6,MGSDKIHHHHHHMTTTPFNRLLLTGAAGGLGKVLRERLKGYAEVLRLSDISPMAPAAGPHEEVITCDLADKAAVHTLVEGVDAIIHFGGVSTEHAFEEILGPNICGVFHVYEAARKHGVKRIIFASSNHTIGFYRQDERIDAHAPRRPDSYYGLSKCYGEDVASFYFDRYGIETVSIRIGSSFPQPQNLRMLCTWLSYDDLVQLIERGLFTPGVGHTIVYGASDNRTVWWDNRHAAHLGYVPKDSSETFRAAVEAQPAPAADDPSMVYQGGAFAVAGPFN,not soluble
7,MATRFKGLSAFPITPADEAGRVDIEAFSALIARLDAAEVDSVGILGSTGIYMYLTREERRRAIEAAATILRGRRTLMAGIGALRTDEAVALAKDAEAAGADALLLAPVSYTPLTQEEAYHHFAAVAGATALPLAIYNNPTTTRFTFSDELLVRLAYIPNIRAIKMPLPADADYAGELARLRPKLSDDFAIGYSGDWGCTDATLAGGDTWYSVVAGLLPVPALQLMRAAQAGNAEEAKRLDATFQPLWALFKEFGSIRVIYAAANILSLTVSEPPRPILPLTSAERQRVEEALEALSALETAP,not soluble
8,MEALNKKLFRLNSKEKIQKSTGTFVPDLPNGSFLKENGSMELLNDYFFKNKDIYISKHNRFADYPYHTHQFLELNYMYSGSSEQVIEGNKETLHEGELLLLDSACHHSIKATGEKDILINILFRDQQISLEWLTSIKKKNSLLFDFLLHSSVSEQSLKKYIIFQSAQIPHIQQFLNQIITEYFLEEEFSSRIITLYLPILFTELVRKCDTYLADDLTSAQSSTTSTMLEVIKLIESNYRTITLTSAADTLGYNKNYLSNFIKKNTNFTFTELVNKQKMLAANLLIETTSTPIELIIEKVGFSNKTYFYSLYKKTFNLLPNEVRNKK,not soluble
9,MEKLTIQEEEVMLHIWSMGECFVKDIVAKFPEPKPPYTTVASIVNNLKRKGYVTAKRFGNTYQYTPVVKQSEYKRTFVSGVVRNYFADSYKEMVSFFAKEQKISAADLKDIINLIEKEEDK,not soluble
10,MHEITLCQRALELIEQQAAKHGAKRVTGVWLKIGAFSCVETSSLAFCFDLVCRGSVAEGCKLHLEEQEAECWCETCQQYVTLLTQRVRRCPQCHGDMLQIVADDGLQIRRIEIDQE,soluble
11,MGSDKIHHHHHHMRIEVWGGAGEYGRSCYFVKNKETKILFDCGINRSYEDSYPKIEREVVPFLDAVFLSHIHEDHTMGLPLLAKYGYKKKIWTTRYTKEQLPAYYEKWRNYNLAQGWHVPYTDQHVKDLNYVYIDEISNPNEWVQITPTLRFQWGYSGHVLGAVWFLLDMSHTYVFYSGDYSAESNILRANLPEKLHGDIKVAIVDAAYHTDDVSQHERINELCTEIERAAGNKGITLLPLPPLGRAQDIVLYLYKKYKELPIIVDQEILDGFQQMFAYKDWIKNNEELEELMESLKRNIIVMDDDSGTQHSYGIVVMSDANMQTKRAQLYYEQLRHDERNSIIFTGHIAKGSFAEKVLKERVGKECRVKRVPYKVHQSIRDVKEMLNTLSPEHTVLVHALKEDTDRLQKKLSTAGYENVYSLTMERIEVI,not soluble
12,MSMQEMVTISIVTYNSRYIFNVLDQLKAELGTDSIYDIHIYDNHSETAYLEKLTTYEPFITIHRAEENQGFGHGHNQVLFNASTKYAIIFNPDVLVTKDVLDRLLNRIKIDKNIAVVSPKVLNEDGTTQYLVRQKLDVFDYMLRFIPFQFVKKIFDKRLSIYECRDLSDTETTDIKMGSGCFMLIDREKFVEIGGFDERFFMYFEDNDLCLRFGKAGYRILYTPFETVVHMYEKGAHKSRKLFKIFMQSMGKFFNKWGWRFFLEHHHHHH,soluble
13,TLLPQVQVLSWDHYVASSPQIYEPSLMIVAQGSKLARLGPRTLEYGAGHYLVQALSVPFMCETFATREAPLLGVAVGIDRGVLGELVQSMGLAPDAEVQAQTPQSMTSAALDAPMRESVERLLHCLQDPLDAKVLGPARVREVLYTALRGPQAGVL,not soluble
14,MGSDKIHHHHHHMIKVEIDEGSGFCFGVVTAIHKAEEELAKGETLYCLGDIVHNSREVERLKAMGLITINRDEFRQLRNAKVLLRAHGEPPETYQIAHKNNIEIIDATCPVVLRLQKRIKQEFRKEDFEEKQIVIYGKNGHAEVLGLVGQTGGQAIVIESAEEAKKLDFTKSIRLFSQTTKSLDEFQEIVEYIKLHISPDATFEYYDTICRQVANRMPNLREFAATHDLIFFVSGKKSSNGKMLFEECLKVNANSHLIDNEKEIDPTLLRNVKSIGVCGATSTPKWLMEKIHDHIQLLIKD,not soluble
15,MMLYFITFREARVLLKSRDLALINVDLMKTGKKIRVRVSKDYVEFPDGSRVKKEIIKRIAEDEGNVYFVRDGEVFKAAIAGEHFYKLVPTIPPTIEINGIRMHRTKGTDPLKDTIAKVNTVKPREGEVVLDTCMGLGYTAIESAKRGARVITIEKDPNVIELAKINPWSRELFESPKIKILQGDSFDLIKKFEDESFDVIIHDPPRFSLAGELYSEEFYMEMFRVLKPGGRLFHYVGNPGKRYRGLDLQKGVMERLRRVGFMKVRRVQEALGVFALKPSLE,soluble
16,MMHTWFECKIRYEKVMENGMNKKVTEPYLVDALSFTEAEARIIEEITPYISGEFTVSDIKRANYSELFPSEEDAADRWFKCKLFFITLDEKSGAEKKTSTTVLVQASDLRDAVKKLDEGMKGTMADYVIASVAETAIMDVYPYEAEPDVKPEFPDAGKTE,not soluble
17,MDIVLVGCKGFGKEHLRIYSKLGYDVSIVERDSNEAKRCSELFRVYKVYDNYEDALRSGSNIVDLVVPDGLHYEMGSLALKSKKHLLVEKPITPDIDSGISLIQQAEESKLKLMVAEQFYFDPSVNEAIRRINNGEIGKPHTVIVRHQSFRELKGWRNEKSMMGRGILIDEGTHYIDTLLNFGGRYRSLRSFVHRTWDFLGEDTAEAVFNFENGMHGLFFYSWNYPEYPLLPEFEIIGDAGSIYEDIGTKPTEPWDQRKRKTAYGDIIVNGKHIPVEPYDVIEREISGFLNAVEKDEPVPMPPDLALRDIITIDRIYKASSD,not soluble
18,MAWPKVQPEVNIGVVGHVDHGKTTLVQAITGIWTSKHSEELKRGMTIKLGYAETNIGVCESCKKPEAYVTEPSCKSCGSDDEPKFLRRISFIDAPGHEVLMATMLSGAALMDGAILVVAANEPFPQPQTREHFVALGIIGVKNLIIVQNKVDVVSKEEALSQYRQIKQFTKGTWAENVPIIPVSALHKINIDSLIEGIEEYIKTPYRDLSQKPVMLVIRSFDVNKPGTQFNELKGGVIGGSIIQGLFKVDQEIKVLPGLRVEKQGKVSYEPIFTKISSIRFGDEEFKEAKPGGLVAIGTYLDPSLTKADNLLGSIITLADAEVPVLWNIRIKYNLLERVVGAKEMLKVDPIRAKETLMLSVGSSTTLGIVTSVKKDEIEVELRRPVAVWSNNIRTVISRQIAGRWRMIGWGLVEI,soluble
19,MGSDKIHHHHHHMKYFVSRSIYTFNSGVEHSQANRTLLFNASGDQARYVTRDYNRLWVRDAERVNLNSTNVLNMYDFFQGTSAVECVQLPVREFKQLALNEYQLVEHGADYSTVDHAGRQLARINIMPGTVGLVGDIEYYDRFETVVSRENFDWRGFKSSIDYFHPDGSLGVRRFLNLAGEVVLENTYMNVEGQLQPTMWKLVNYHGKNYRFDTEDQLFLFFLNEVTQQTTDNVVVSDHRELDYVIADVENATSKWVALHGSHVDQGGTPFAAYSIALQIRAQDFDGIIVPTQEQQLELKEQFPELNVQVAPDVAISPELINSKPVWLRDRIAGRIIFSGRLEADKRPMEALKAFFKVLEQFLTLRWNLGDILTTKTC,not soluble
20,MDKSSDAFRTISEVAELLELPQHVLRFWETRFKQIKPMKRGGGRRYYRPVDIDLLNGIKQLLYDQGYTIKGVQRLLKENGVAFVTAFGNGDLDAMNVVIEKKHGEQTSEVTSSKPKKSSFGLLSFMRNEVETSIGSVNVYKDKTDKALLQEILFELIECKRVLDRAR,not soluble
21,MGSDKIHHHHHHMVVNESMYQLGSVRSAIRELFEYGKKRAAIVGKENVYDFSIGNPSIPAPQIVNDTIKELVTDYDSVALHGYTSAQGDVETRAAIAEFLNNTHGTHFNADNLYMTMGAAASLSICFRALTSDAYDEFITIAPYFPEYKVFVNAAGARLVEVPADTEHFQIDFDALEERINAHTRGVIINSPNNPSGTVYSEETIKKLSDLLEKKSKEIGRPIFIIADEPYREIVYDGIKVPFVTKYYDNTLVCYSYSKSLSLPGERIGYVLVPDEVYDKAELYAAVCGAGRALGYVCAPSLFQKMIVKCQGATGDINAYKENRDLLYEGLTRIGYHCFKPDGAFYMFVKALEDDSNAFCEKAKEEDVLIVAADGFGCPGWVRISYCVDREMIKHSMPAFEKIYKKYNK,not soluble
22,MLKIDAIAFFGSKTKLANVAGVRLASVAAWGELVPEGRAMRLQEASGGELQYDPKVYDEYRKAKRAGRLNNENHH,not soluble
23,MSDEALTLLFSAVENGDQNCIDLLCNLALRNDDLGHRVEKFLFDLFSGKRTGSSDIDKKINQACLVLHQIANNDITKDNTEWKKLHAPSRLLYMAGSATTDLSKKIGIAHKIMGDQFAQTDQEQVGVENLWCGARMLSSDELAAATQGLVQESPLLSVNYPIGLIHPTTKENILSTQLLEKIAQSGLSHNEVFLVNTGDHWLLCLFYKLAEKIKCLIFNTYYDLNENTKQEIIEAAKIAGISESDEVNFIEMNLQNNVPNGCGLFCYHTIQLLSNAGQNDPATTLREFAENFLTLSVEEQALFNTQTRRQIYEYSLQ,not soluble
